Measured values as given in patent US20240376224A1 (University of California, published 2024).

Key:
His-CUB1 = target: T1, His-CUB1 (human, UniProt Q9H5V8 30-367, limits assumed); experiment: sandwich ELISA, CL03 as capture antibody, antigen titrated (ng/mL), anti-CDCP1 polyclonal antibody for detection
T1 construct: also called CUB1 (His-CUB1, soluble NTF); not shown: His tag
T1 sequence: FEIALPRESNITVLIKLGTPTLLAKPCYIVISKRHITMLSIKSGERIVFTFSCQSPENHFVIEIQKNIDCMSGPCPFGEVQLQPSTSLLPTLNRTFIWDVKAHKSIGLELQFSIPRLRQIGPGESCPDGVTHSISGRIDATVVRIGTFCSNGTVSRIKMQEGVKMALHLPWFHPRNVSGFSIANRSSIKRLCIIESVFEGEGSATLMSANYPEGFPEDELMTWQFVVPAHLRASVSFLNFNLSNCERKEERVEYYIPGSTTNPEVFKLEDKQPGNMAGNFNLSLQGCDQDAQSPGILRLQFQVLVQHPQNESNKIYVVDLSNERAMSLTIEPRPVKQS
Protocol: (§1) CUB1 N-terminal fragment (NTF) is present only in human serum. Since CL03 binds to an epitope on CUB1 domain that is exposed upon proteolysis, CUB1 (NTF) would serve as a sink to CL03 that decreases the viable concentration of CL03 on tumor site if it binds to CUB1 only in human serum. To further investigate the binding mechanism of CL03, an ELISA experiment was performed in which the binding of CL03 to CUB1 in human serum was evaluated. ELISA assays were performed as generally described in Example 1. Briefly, either IgG CL03 or 4A06 was used as the capture antibody; the target antigens evaluated were as presented in Table 9 below; and an anti-CDCP1 polyclonal Ab was used as the detection antibody (R&D: Cat. #AF2666).

His-TEV-CUB1 = target: T2, His-TEV-CUB1 (human, UniProt Q9H5V8 30-367); experiment: as above
T2 construct: also called CUB1 (His-TEV-CUB1, soluble NTF); not shown: His tag and TEV site
T2 sequence: T1 sequence
Protocol: as §1

[1] = target: T3, mouse fl-CDCP1 (recombinant uncleaved mouse CDCP1) (mouse, UniProt Q5U462 30-666); experiment: BLI (Octet), mouse fl-CDCP1-Fc on the sensor, IgG CL03 as analyte
T3 construct: The mouse antigen made was fl-CDCP1-Fc; also called mouse fl-CDCP1-Fc
T3 sequence: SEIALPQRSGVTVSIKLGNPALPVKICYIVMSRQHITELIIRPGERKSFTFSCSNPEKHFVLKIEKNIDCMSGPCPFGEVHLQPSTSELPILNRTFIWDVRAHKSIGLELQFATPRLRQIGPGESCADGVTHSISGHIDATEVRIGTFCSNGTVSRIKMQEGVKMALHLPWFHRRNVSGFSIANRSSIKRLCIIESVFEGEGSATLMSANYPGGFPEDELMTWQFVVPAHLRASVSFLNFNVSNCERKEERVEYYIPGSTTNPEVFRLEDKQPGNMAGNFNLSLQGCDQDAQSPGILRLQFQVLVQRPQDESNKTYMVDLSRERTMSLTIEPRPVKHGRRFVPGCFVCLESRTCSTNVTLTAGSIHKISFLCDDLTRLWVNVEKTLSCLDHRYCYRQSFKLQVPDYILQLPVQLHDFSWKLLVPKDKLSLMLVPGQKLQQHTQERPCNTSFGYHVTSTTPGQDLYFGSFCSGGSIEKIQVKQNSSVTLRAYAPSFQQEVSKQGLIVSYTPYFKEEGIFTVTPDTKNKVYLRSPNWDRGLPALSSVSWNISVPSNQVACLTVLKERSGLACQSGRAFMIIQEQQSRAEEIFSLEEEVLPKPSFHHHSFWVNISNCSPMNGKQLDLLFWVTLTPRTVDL

[2] = target: T4, cleaved human CDCP1 on the cell surface (endogenous, PDAC cells) (human) (UniProt Q9H5V8); experiment: dose-response flow cytometry on PL45 cells; PL45 cells
T4 sequence 1: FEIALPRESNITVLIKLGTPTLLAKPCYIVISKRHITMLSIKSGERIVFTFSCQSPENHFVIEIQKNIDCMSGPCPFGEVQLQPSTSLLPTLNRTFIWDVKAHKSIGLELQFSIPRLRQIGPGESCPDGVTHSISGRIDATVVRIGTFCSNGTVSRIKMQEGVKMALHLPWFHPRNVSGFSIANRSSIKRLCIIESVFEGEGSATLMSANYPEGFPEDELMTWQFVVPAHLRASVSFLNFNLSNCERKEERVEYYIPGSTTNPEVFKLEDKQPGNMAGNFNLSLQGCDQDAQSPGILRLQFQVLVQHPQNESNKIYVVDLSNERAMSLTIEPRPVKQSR
T4 sequence 2: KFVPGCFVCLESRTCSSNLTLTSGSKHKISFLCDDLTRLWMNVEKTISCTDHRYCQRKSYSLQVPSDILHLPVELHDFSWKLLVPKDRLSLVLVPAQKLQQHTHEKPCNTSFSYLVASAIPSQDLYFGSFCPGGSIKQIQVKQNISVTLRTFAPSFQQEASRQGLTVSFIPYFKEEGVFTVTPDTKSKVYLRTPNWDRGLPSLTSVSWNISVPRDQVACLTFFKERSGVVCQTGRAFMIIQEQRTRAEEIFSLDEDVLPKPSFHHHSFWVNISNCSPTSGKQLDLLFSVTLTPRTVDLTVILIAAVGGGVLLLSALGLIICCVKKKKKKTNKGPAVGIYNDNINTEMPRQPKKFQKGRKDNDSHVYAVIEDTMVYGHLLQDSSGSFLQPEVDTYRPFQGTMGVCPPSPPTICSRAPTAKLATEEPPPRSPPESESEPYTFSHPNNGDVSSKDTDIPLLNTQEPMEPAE

c-CDCP1 = experiment: BLI (Octet RED384)

B1: CL03 IgG (antibody, V domains shown)
VH: EVQLVESGGGLVQPGGSLRLSCAASGFNFSSYSIHWVRQAPGKGLEWVASIYPYSGSTYYADSVKGRFTISADTSKNTAYLQMNSLRAEDTAVYYCARQSHSYYSHTWWVSYGMDYWGQGTLVTVSS
VL: DIQMTQSPSSLSASVGDRVTITCRASQSVSSAVAWYQQKPGKAPKLLIYSASSLYSGVPSRFSGSRSGTDFTLTISSLQPEDFATYYCQQSGQRPITFGQGTKVEIKR
notes: also called IgG CL03
His-CUB1
  binding result: no binding (tested: 1000 ng/mL)
His-TEV-CUB1
  binding result: no binding (tested: 1000 ng/mL)
[1]
  binding result: no binding (tested: not printed)
[2]
  EC50: 20.7 nM
c-CDCP1
  Kd: 0.15 to 0.84 nM
